The results in this text go back to patent publication US5459256A, “Lipophilic, aminohydrolase-activated prodrugs” (priority 1991, dated 1995).

For orientation: Km means the substrate concentration at which the rate is half of its maximum.

Holding throughout (assay): purified protein, by the assay type
Holding throughout (conditions): other: pH 7.4 and 37° C.

Substrate in data set [1]: Nc1ncnc2c1ncn2[C@H]1CC[C@@H](CO)O1
Substrate in data set [2]: OC[C@@H]1C[C@H](F)[C@H](n2cnc3c(Cl)ncnc32)O1
Substrate in data set [3]: Nc1ncnc2c1ncn2[C@@H]1O[C@H](CO)C[C@@H]1F
Substrate in data set [4]: CNc1ncnc2c1ncn2[C@@H]1O[C@H](CO)C[C@@H]1F

B1: adenosine deaminase (adenosine aminohydrolase, EC 3.5.4.4) (Bos taurus) (protein)
chain: MAQTPAFNKPKVELHVHLDGAIKPETILYYGRKRGIALPADTPEELQNIIGMDKPLSLPEFLAKFDYYMPAIAGCREAVKRIAYEFVEMKAKDGVVYVEVRYSPHLLANSKVEPIPWNQAEGDLTPDEVVSLVNQGLQEGERDFGVKVRSILCCMRHQPSWSSEVVELCKKYREQTVVAIDLAGDETIEGSSLFPGHVKAYAEAVKSGVHRTVHAGEVGSANVVKEAVDTLKTERLGHGYHTLEDATLYNRLRQENMHFEVCPWSSYLTGAWKPDTEHPVVRFKNDQVNYSLNTDDPLIFKSTLDTDYQMTKNEMGFTEEEFKRLNINAAKSSFLPEDEKKELLDLLYKAYGMPSPASAEQCL
For B1, the Km was determined as 14 µM in data set [1], 7500 µM in data set [2], 330 µM in data set [3] and 110 µM in data set [4].
